Results taken from patent US20220089743A1.

Legend:
Test in all cases: cell-based or functional assay
[1] = biological target: HLA-DQ2.5 on IHW09023 cells loaded with 33 mer gliadin peptide (human; wheat)
[2] = biological target: HLA-DQ2.5 on IHW09023 cells loaded with BC hordein peptide (human; barley)
[3] = biological target: HLA-DQ2.5 on IHW09023 cells loaded with gamma 1 gliadin peptide (human; wheat)
[4] = biological target: HLA-DQ2.5 on IHW09023 cells loaded with gamma 2 gliadin peptide (human; wheat)
[5] = biological target: HLA-DQ2.5 on IHW09023 cells loaded with gamma 3 gliadin peptide (human; wheat)
[6] = biological target: HLA-DQ2.5 on IHW09023 cells loaded with gamma 4a gliadin peptide (human; wheat)
[7] = biological target: HLA-DQ2.5 on IHW09023 cells loaded with gamma 4d gliadin peptide (human; wheat)
[8] = biological target: HLA-DQ2.5 on IHW09023 cells loaded with omega1/2 gliadin peptide (human; wheat)

IC50, α1a gliadin TCR, 250 nM 33mer gliadin [1]: 0.0106 µg/mL
IC50, α1b gliadin TCR, 250 nM 33mer gliadin [1]: 0.0464 µg/mL
IC50, α2 gliadin TCR, 250 nM 33mer gliadin [1]: 0.00175 µg/mL
IC50, BC hordein TCR, 250 nM BC hordein [2]: > 20 µg/mL
IC50, γ1 gliadin TCR, 250 nM γ1 gliadin [3]: > 20 µg/mL
IC50, γ2 gliadin TCR, 250 nM γ2 gliadin [4]: > 20 µg/mL
IC50, γ3 gliadin TCR, 100 µM γ3 gliadin [5]: 3.1 µg/mL
IC50, γ4a gliadin TCR, 25 µM γ4a gliadin [6]: > 20 µg/mL
IC50, γ4d gliadin TCR, 100 µM γ4d gliadin [7]: > 20 µg/mL
IC50, ω1 gliadin TCR, 25 µM ω1/2 gliadin [8]: 0.00312 µg/mL
IC50, ω2 gliadin TCR, 250 nM ω1/2 gliadin [8]: > 0.5 µg/mL
B1: DQN034425 (antibody, V domains shown)
VH: QVQLVESGGGVVQPGRSLRLSCAASGFTFSSSYWMCWVRQAPGQGLEWMGCVYGGSDTTYYASWTKGRFTISRDNSKNTLYLQMNSLRAEDTAVYYCARDPLNYYYYGELNLWGQGTLVTVSS
VL: DIQMTQSPSSLSASVGDRVTITCQATENIYSGLAWYQQKPGKAPKLLIYYVSTLASGIPARFSGSGSGTDFTLTISSLEPEDFAVYYCQTYHDISNVTFGQGTKVEIK
